To fix the notation:
B1: PrgH (inner membrane ring protein) in the purified needle complex (natural protein)
chain: METSKEKTITSPGPYIVRLLNSSLNGCEFPLLTGRTLFVVGQSDALTASGQLPDIPADSFFIPLDHGGVNFEIQVDTDATEIILHELKEGNSESRSVQLNTPIQVGELLILIRPESEPWVPEQPEKLETSAKKNEPRFKNGIVAALAGFFILGIGTVGTLWILNSPQRQAAELDSLLGQEKERFQVLPGRDKMLYVAAQNERDTLWARQVLARGDYDKNARVINENEENKRISIWLDTYYPQLAYYRIHFDEPRKPVFWLSRQRNTMSKKELEVLSQKLRALMPYADSVNITLMDDVTAAGQAEAGLKQQALPYSRRNHKGGVTFVIQGALDDVEILRARQFVDSYYRTWGGRYVQFAIELKDDWLKGRSFQYGAEGYIKMSPGHWYFPSPL
notes: PrgH, Salmonella Typhimurium SPI-1 type III secretion system, native protein in the needle complex; Native protein stood in the sample; only 171-364 was modelled; also called PrgH_(171–364); IM rings; source: endogenous, ΔflhD Salmonella SL1344 with HilA on a pBAD plasmid; needle complex purified (LDAO lysis, centrifugation, CsCl gradient, Superose 6); copies: 24
B4: InvG (outer membrane secretin) in the purified needle complex (natural protein)
chain: SEKIPVTGSGFVAKDDSLRTFFDAMALQLKEPVIVSKMAARKKITGNFEFHDPNALLEKLSLQLGLIWYFDGQAIYIYDASEMRNAVVSLRNVSLNEFNNFLKRSGLYNKNYPLRGDNRKGTFYVSGPPVYVDMVVNAATMMDKQNDGIELGRQKIGVMRLNNTFVGDRTYNLRDQKMVIPGIATAIERLLQGEEQPLGNIVSSEPPAMPAFSANGEKGKAANYAGGMSLQEALKQNAAAGNIKIVAYPDTNSLLVKGTAEQVHFIEMLVKALDVAKRHVELSLWIVDLNKSDLERLGTSWSGSITIGDKLGVSLNQSSISTLDGSRFIAAVNALEEKKQATVVSRPVLLTQENVPAIFDNNRTFYTKLIGERNVALEHVTYGTMIRVLPRFSADGQIEMSLDIEDGNDKTPQSDTTTSVDALPEVGRTLISTIARVPHGKSLLVGGYTRDANTDTVQSIPFLGKLPLIGSLFRYSSKNKSNVVRVFMIEPKEIVDPLTPDASESVNNILKQSGAWSGDDKLQKWVRVYLDRGQEAIK
notes: InvG, secretin of the Salmonella Typhimurium SPI-1 type III secretion system, native protein in the needle complex; the final model covers residues 34-557 (N3 domain loop 228-251 disordered); Native protein stood in the sample; 34-557 was modelled (core 176-557 at 3.9 Å); also called InvG_(34–557); InvG_(176–557); source: endogenous, ΔflhD Salmonella SL1344 with HilA on a pBAD plasmid; needle …

Data set [1] deals with the molecule itself. As to the kind of experiment: cryo-EM structure; purified needle complex; symmetrised reconstructions with atomic models: C24 IM rings 3.6 Å; signal subtraction and focussed refinement of the secretin with C15, 4.1 Å (whole) and 3.9 Å (core).
The target in data set [2] is B4. Kind of data set: cryo-EM structure; purified needle complex; unsymmetrised C1 reconstruction, 7.4 Å; molecular envelope, needle model fitted with Chimera. To be noted: both partners purified.
Data set [3] concerns the molecule itself. As to the kind of experiment: cryo-EM structure; isolated needle filaments, helical reconstruction in Relion, 3.3 Å (helical rise 4.33 Å, turn 63.34°), de novo model.
The target of data set [4] is B1. As to the kind of experiment: cryo-EM structure; purified needle complex; symmetrised reconstructions with atomic models: C24 IM rings 3.6 Å; signal subtraction and focussed refinement of the secretin with C15, 4.1 Å (whole) and 3.9 Å (core). Conditions: both partners purified.

A word on the stoichiometry N: it is a count of units in the complex or per binding partner. For the molecule B1, the “stoichiometry N” value in data set [1] was 24. In data set [2], the binding result is recorded as “binds”.

B2: PrgI (needle protein), isolated needle filament (natural protein)
chain: MATPWSGYLDDVSAKFDTGVDNLQTQVTEALDKLAAKPSDPALLAAYQSKLSEYNLYRNAQSNTVKVFKDIDAAIIQNFR
notes: PrgI, needle protein of the Salmonella Typhimurium SPI-1 type III secretion system; the model covers residues 3-80 (lacks only the first two N-terminal residues; C-terminal residue Arg80); Helical polymer of many copies; also called the needle; PrgI_(3–80); source: non-flagellated ΔPrgI Salmonella Typhimurium complemented with PrgI and hilA on pBAD plasmid; filaments removed by vigorous stirring, …
As to B2, the binding result in data set [3] is reported as “binds”.

B3: PrgI (needle protein) in the purified needle complex (natural protein, UniProt P41784 1-80, looked up)
chain: MATPWSGYLDDVSAKFDTGVDNLQTQVTEALDKLAAKPSDPALLAAYQSKLSEYNLYRNAQSNTVKVFKDIDAAIIQNFR
notes: PrgI, needle protein of the Salmonella Typhimurium SPI-1 type III secretion system, as part of the native needle complex; Not resolved at high resolution inside the needle complex; the model of the isolated needle was fitted into the C1 map; also called the needle; needle filament; source: endogenous, ΔflhD Salmonella SL1344 with HilA on a pBAD plasmid; needle complex purified (LDAO lysis, …)
Turning to B3, in data set [2], the binding result is “binds”.
For the molecule B4, in data set [1], the “stoichiometry N” value worked out at 15.

B5: PrgK (inner membrane ring protein) in the purified needle complex (natural protein)
chain: CKDKDLLKGLDQEQANEVIAVLQMHNIEANKIDSGKLGYSITVAEPDFTAAVYWIKTYQLPPRPRVEIAQMFPADSLVSSPRAEKARLYSAIEQRLEQSLQTMEGVLSARVHISYDIDAGENGRPPKPVHLSALAVYERGSPLAHQISDIKRFLKNSFADVDYDNISVVLSERSDAQLQAPGTPVKRNSFATSWIVLIILLSVMSAGFGVWYYKNHYARNKKGITADDKAKSSNE
notes: PrgK, Salmonella Typhimurium SPI-1 type III secretion system, native protein in the needle complex; Native protein stood in the sample; only 20-203 was modelled; also called PrgK_(20–203); IM rings; source: endogenous, ΔflhD Salmonella SL1344 with HilA on a pBAD plasmid; needle complex purified (LDAO lysis, centrifugation, CsCl gradient, Superose 6); copies: 24
In the case of B5, in data set [1], the “stoichiometry N” value came to 24. Further, the binding result in data set [4] is recorded as “binds”.
